Measured values taken from PMC7391827 (Science (New York, N.Y.), 2020).

Experiments:
[1] = biological target: prefusion RSVF (preRSVF), prefusion-stabilized respiratory syncytial virus fusion protein (respiratory syncytial virus) (UniProt P03420)
S0_2.126 = biological target: T1, S0_2.126 (synthetic construct (de novo design)); assay: SPR
T1 chain: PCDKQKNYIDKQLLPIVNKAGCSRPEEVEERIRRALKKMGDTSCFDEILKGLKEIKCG

prefusion RSVF (preRSVF), prefusion-stabilized respiratory syncytial virus fusion protein (respiratory syncytial virus), sequence (P03420 135-513): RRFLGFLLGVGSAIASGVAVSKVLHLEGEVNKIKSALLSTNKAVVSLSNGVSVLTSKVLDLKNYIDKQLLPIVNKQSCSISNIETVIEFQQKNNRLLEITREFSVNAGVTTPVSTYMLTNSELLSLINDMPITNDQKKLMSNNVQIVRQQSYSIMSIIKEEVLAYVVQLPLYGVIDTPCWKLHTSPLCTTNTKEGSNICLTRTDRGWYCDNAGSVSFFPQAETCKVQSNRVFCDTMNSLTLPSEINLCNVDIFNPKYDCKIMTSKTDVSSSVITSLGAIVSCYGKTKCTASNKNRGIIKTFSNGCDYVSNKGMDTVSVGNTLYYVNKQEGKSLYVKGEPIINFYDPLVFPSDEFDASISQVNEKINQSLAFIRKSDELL

Molecule: D25 antibody
- Kd [1]: 0.15 nM

B1: D25 antibody (antibody, V domains shown)
VH: QVQLVQSGAEVKKPGSSVMVSCQASGGPLRNYIINWLRQAPGQGPEWMGGIIPVLGTVHYAPKFQGRVTITADESTDTAYIHLISLRSEDTAMYYCATETALVVSTTYLPHYFDNWGQGTLVTVSS
VL: DIQMTQSPSSLSAAVGDRVTITCQASQDIVNYLNWYQQKPGKAPKLLIYVASNLETGVPSRFSGSGSGTDFSLTISSLQPEDVATYYCQQYDNLPLTFGGGTKVEIK
- Kd (S0_2.126): ~0.05 nM
